The results in this text go back to patent US20110014213A1 (JURIDICAL FDN THE CHEMO SERO THERAP RES INS, published 2011).

For experiment [1], the target named is T1, mouse α4 integrin (mouse, UniProt Q00651 41-1039).
T1 construct: whole, on cells; Control antigen; also called CHO/mα4
T1 sequence (looked up): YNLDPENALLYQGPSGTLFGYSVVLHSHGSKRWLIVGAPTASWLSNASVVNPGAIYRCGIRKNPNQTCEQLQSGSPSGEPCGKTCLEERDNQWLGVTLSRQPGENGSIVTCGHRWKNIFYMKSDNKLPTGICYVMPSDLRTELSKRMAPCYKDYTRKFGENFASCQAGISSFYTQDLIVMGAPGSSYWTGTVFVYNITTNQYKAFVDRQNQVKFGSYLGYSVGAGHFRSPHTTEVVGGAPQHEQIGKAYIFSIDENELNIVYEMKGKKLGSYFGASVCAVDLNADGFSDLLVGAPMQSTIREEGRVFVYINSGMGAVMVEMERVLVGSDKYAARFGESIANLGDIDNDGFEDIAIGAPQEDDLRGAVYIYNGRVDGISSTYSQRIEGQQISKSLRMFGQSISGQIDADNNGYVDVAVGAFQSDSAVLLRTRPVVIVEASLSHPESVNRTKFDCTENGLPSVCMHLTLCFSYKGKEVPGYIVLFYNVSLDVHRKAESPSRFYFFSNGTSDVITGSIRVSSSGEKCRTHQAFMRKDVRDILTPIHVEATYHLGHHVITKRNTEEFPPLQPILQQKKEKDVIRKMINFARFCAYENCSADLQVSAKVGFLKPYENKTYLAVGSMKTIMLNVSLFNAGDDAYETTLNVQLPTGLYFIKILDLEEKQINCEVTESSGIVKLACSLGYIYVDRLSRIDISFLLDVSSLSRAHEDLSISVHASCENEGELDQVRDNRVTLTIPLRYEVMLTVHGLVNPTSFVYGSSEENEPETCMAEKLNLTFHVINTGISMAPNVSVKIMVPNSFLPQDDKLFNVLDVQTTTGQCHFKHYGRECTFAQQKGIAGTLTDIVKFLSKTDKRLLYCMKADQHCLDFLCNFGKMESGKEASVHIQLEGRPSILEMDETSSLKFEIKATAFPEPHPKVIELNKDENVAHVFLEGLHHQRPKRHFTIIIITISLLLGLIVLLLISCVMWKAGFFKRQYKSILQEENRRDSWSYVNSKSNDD
Nature of the experiment: flow cytometry on CHO/mα4. As for the experimental part: As a result, the reactivity with mouse α9 and human α9 was confirmed. Although the reactivity with each of CHO and CHO/mα4 was also assessed in the same manner, the reactivity with mouse α4 was not observed (FIG. 6).
(In flow cytometry, cells or beads pass a laser one at a time.)

The target of experiment [2] is T2, hα9/mL1-EGFP (human, UniProt Q13797 30-1035).
T2 construct: an offset must be applied; also called L1 loop region variant of human α9-EGFP; not shown: EGFP from pEGFP-N1 vector (Clontech) fused to the C-terminal (cytoplasmic region)
T2 chain: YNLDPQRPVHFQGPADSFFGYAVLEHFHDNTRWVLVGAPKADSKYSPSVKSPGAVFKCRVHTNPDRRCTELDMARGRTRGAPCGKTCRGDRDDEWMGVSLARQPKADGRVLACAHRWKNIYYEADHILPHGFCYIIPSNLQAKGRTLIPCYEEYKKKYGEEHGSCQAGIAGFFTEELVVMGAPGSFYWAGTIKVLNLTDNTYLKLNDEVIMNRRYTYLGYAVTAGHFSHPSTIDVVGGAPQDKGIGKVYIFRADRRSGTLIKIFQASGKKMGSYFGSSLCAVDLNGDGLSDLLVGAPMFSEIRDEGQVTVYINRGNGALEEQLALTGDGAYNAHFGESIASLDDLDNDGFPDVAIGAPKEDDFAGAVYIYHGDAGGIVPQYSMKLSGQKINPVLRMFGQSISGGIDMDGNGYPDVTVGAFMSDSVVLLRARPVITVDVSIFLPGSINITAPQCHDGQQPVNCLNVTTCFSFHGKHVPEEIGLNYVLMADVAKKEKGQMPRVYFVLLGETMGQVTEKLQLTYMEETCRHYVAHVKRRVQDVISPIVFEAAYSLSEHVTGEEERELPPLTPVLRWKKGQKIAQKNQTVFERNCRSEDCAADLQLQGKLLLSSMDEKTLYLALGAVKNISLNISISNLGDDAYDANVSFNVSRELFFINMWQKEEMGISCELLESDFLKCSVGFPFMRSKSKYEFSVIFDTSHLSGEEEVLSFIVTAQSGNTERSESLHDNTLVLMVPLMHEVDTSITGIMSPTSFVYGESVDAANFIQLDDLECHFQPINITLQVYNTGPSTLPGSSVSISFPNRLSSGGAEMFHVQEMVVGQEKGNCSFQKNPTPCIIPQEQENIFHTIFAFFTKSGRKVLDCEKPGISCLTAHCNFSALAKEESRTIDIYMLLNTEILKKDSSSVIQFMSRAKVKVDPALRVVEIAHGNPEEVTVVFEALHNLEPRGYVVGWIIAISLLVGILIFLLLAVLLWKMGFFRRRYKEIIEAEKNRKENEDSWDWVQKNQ
The experiment can be described thus: Cell ELISA on transiently expressing CHO cells. How it is done: CHO/mα9 and CHO were seeded on a 96 well plate (costar) at 2×10⁴ cells/100 μL/well, and incubated overnight at 37° C., 5% CO₂. The medium was suctioned, and the cells were washed with PBS, and reacted with phage antibody diluted with 1% BSA/PBS. The detection was performed by using horse-radish peroxidase (HRP)-labeled anti-M13 antibody (Amersham) and TMB (SIGMA) in combination. The absorbance at wavelengths 450 nm and 650 nm was measured by a microplate reader (Molecular Devices).
SW480/mα9, SW480/hα9 and SW480 were used as antigens, 1% BSA/PBS containing 5% FBS was used as a dilution solution, an HRP-labeled anti-mouse IgG antibody (ZYMED) was used for detection, and the rest was performed under the same conditions as in Example 4.
Next, analysis by Cell ELISA was performed. Various cells after about 24 hr from gene transfection were collected, and seeded on a 96 well plate at 2×10⁴ cells/100 μL/well. The rest was performed under the same conditions as in Example 11.
For orientation: An ELISA detects its analyte on a solid surface through an enzyme-linked reagent.

B1: MA9-413 scFv-Fc (Fc fusion)
scFv: EVQLVESGGGVVRPGGSLRLSCAASGFAFGDYGMSWVRQAPGKGLEWVSGINWNGGSTGYADSVKGRFTTSRDNAKNSLYLQMNSLRAEDTALYYCARDENYDILTGYYYYGMDVWGQGTTVTVSSGGGGSGGGGSGGGGSQSVVTQPPSVSAAPGQKVTISCSGSSSNIGNNYVSWYQQLPGTAPKLLIYDNNKRPSGIPDRFSASKSGTSATLGITGLQTGDEADYYCGTWDSSLTVWAFGGGTKLTVLG
notes: Divalent scFv-Fc with mouse IgG1 Fc, expressed in CHO-DG44; also called ANM-2; not shown: Fc region of mouse IgG1 and its junction to the scFv
B1: the binding result in experiment [1] is given as “no binding”; in experiment [2], “binds”.
